Results reported in patent publication US20050070690A1.

Assays:
nerve growth factor = assay: SPR (BiaCore), TrkIg2 amine-coupled to CM5 chip, NGF passed over at 0.1-100 nM, 1:1 Langmuir model
neurotrophin-4 = assay: SPR (BiaCore), TrkIg2 amine-coupled to CM5 chip, NT-4 passed over at 1-100 nM, 1:1 Langmuir model
[1] = target: brain derived neurotrophic factor; assay: SPR (BiaCore), TrkIg2 amine-coupled to CM5 chip, BDNF passed over at 0.1-25 nM, 1:1 Langmuir model

Q: With “TrkAIg2.66His (from UniProt P04629) (receptor)” as the substance, how does the Kd (nerve growth factor) read?
A: 0.0792 nM

Q: How did the Kd (neurotrophin-4) turn out when “TrkBIg26His (from UniProt Q16620) (receptor)” was run?
A: 0.26 nM

Q: What about the Kd [1] of the same substance?
A: 0.79 nM

Q: Which Kd (nerve growth factor) does the source give for “TrkAIg26His (from UniProt P04629-2) (receptor)” here?
A: 0.0926 nM
